Where only a bound is given, the exact number is not on record here.

The data set in a line: soluble fraction after stress (log2 fold change); higher = more stays soluble; pooled small domains, quantitative proteomics. As to conditions: stress: pH 4. The method in brief:
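Small protein domains from pooled custom libraries were exposed to pH 4, then quantified with high-throughput quantitative proteomics. The fold change in how much of each domain remains soluble is read as aggregation propensity. It is given as log2, with higher values meaning more stayed soluble.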
Consider “HMETGEDSLRRYFNSLPGSASKREILEDNPTVSQRTTERILQKLQAEGFIEKVGAARATRYRKVKQ”, for which the “soluble fraction (log2)” value came to 0.27.
In the case of “HMETGELQQILEDVFSKNIGIVQDKREAAFSILMGMIMAKSRGRADGALVSTLLKKKLTEFLATSDQVR”, the “soluble fraction (log2)” value was -0.196.
Then “HMETGNEDYRVGKELAYDGNYKAATIYLMKSIKDDPNNPDAFNMLGFSHRKLGNNDEAYIYYNKALEL”, with -0.722; and “HMETKKEIIEAINELEEKYRNAIYLTSIEKLSYEETSKILGQSLSNTKNLIHRGKQQLRKILIKK”, with -0.37; and “HMETLEDHRKKTRQQLFDALSHLLQTSTFESLTMAKIAEEAGVGRTAVYNHFQDKEALLLAFITYETGQ”, with -0.815.
Take “HMETLETYTSRLRQLEDITNNFKGVDKSFAIQAGREIRVMVVPEQVSDADMILMARDISKAIEAELEYPGQ”: the “soluble fraction (log2)” value is -0.315.
The value for “HMETLGADLRALRKSRGLTLLDMAESLGRSVGWLSQVERDLSDPSISDLREIAELLGVPISMLFRH” was -1.33.
With “HMETLKEMDSKGAINASEVNVREGAGTSSSKMYSLSKGASVDVTGIKGDWYRVHTSKGTGYVLAKYVTLVS”, the “soluble fraction (log2)” value is no less than 0.43.
Consider “HMETLYGQIVNDIMEKIESNAWPVGYVIPTESDFQKQYGVSRATVRNAILKLAHLGYLVRKKGSGTYVTRP”, for which the “soluble fraction (log2)” value was -0.287.
As to “HMETPEIPGLTPRQVEIMLLVGKGYSNKEIARFLTISPETVKTHLKEVFLRFGLRNRVEAIDFTRQNGL”, the “soluble fraction (log2)” value was -0.358.
For the sequence “HMETPLSAADFKIVFGEEYEIGTDANGLPKMGSRINRQLQNRFLTWASVNKRKATMSAYQDWVASDPAAQ”, the “soluble fraction (log2)” value is -0.693.
For “HMETQVKVPNVVGMTQSKAIAKLKESKLDYEVQEQKHDGDKGKVVDQSEAEGTYVDRGTKVIIYVSTGE”, the “soluble fraction (log2)” value is no less than 0.43.
Take “HMETSIQFIRLEIGHNHPWVNQTLKEIPTIPGTLIAAVLRGDEDQAIIPKGDTLLKEGDSVIIGAKEYQD”: the “soluble fraction (log2)” value is -1.61.
Then “HMETSLVIQIDGAVNSPGIYQVTPGTRIFEALELAGGVREDAQTEALNLALPVYDGQRISIPSSFA”, with -1.58; and “HMETTVSYSGVVTASVLRIRKGPSVSSSVAGTLKKGTGVSIIFEDNGWGKLADGSGWVSLTYIKKNSTP”, with -0.101.
As to “HMETWDQAYETIKQNILNLTYPPGMPLTEAKLAEELGMSRSPVRTALRMLQTDGLIVTDYYKSMTVKEI”, the “soluble fraction (log2)” value was -2.07.
On to “HMETWKLYKRAYKKYYARYMKGNMSEADFKAWATQAAADRDAAIEQITPEIDAALKAQIIEQLREKLNR”, for which the “soluble fraction (log2)” value is -0.134.
Turning to “HMEVAAAENYRSKLSSFAKDTISVWQTELLLGTISDDDKASLTEWMAYIKALQVVDTSDPESITWPTEPT”, the “soluble fraction (log2)” value was -1.12.
As to “HMEVAASEQRDNLWALARRVLSGEQYDVLYLRYVEDFSVAQIADVVGKTQTHVKVLLFRGRNNLGSRLRS”, the “soluble fraction (log2)” value was -0.0684.
Take “HMEVENAQLLARLTPQEHRVFERVVAGLSNREIGSEMDISIKTVEVHRARVMRKLEANSVAELVRFHIHN”: the “soluble fraction (log2)” value was -0.811.
Then “HMEVGDTYLGKVTRVSSFGAFIEVLPGKEGLMRQNDAGEGGMPEVGDEVMVRVMEVDHLGRINLSGKLDD”, with -1.32.
Consider “HMEVGKRIAEIRKENRMSQEQFGQLFHVTRQTVSNWENAKSYPDLQTLVKISELFEITMDELLK”, for which the “soluble fraction (log2)” value was -0.454.
Then “HMEVKVSGHLEAIGGVYHMKLSWIDDAGKRRRKSKSTGLAERGNKKRANDMLIDFMREQEAEIAASGD”, with no less than 0.43.
Then “HMEVLSKRGSTGTEVINIQKKLKNWGYYTGSVDGIYGKLTEEAVRYFQRTNGLTVDGIAGKNTLAAMGIA”, with 0.399; and “HMEVNLEPLIALLRKHRDLDLSGYSKSTLGRRITYFMGLNKISSIDELGRRLAEDDLLFQEFLDKLT”, with -0.818; and “HMEVSLEDKMDYLTNYATTHKNFSFRNLLESSSGKIEVIVTFLAILELMKMGRINISQEHIFDDIIIESRI”, with -1.8.
With “HMEVSTRQVRAALRDIIEAEDKKRPLSDEAITARLREQGLPVARRTVAKYREQMGILAARLRK”, the “soluble fraction (log2)” value amounted to 0.0717.
Then “HMEVVRVEPGATVRDLGEALGVPPTRIIQILMGLGEMKTVTQTLSTEEIELVAEELGRRVEV”, with -0.248; and “HMEWVVVPDVRRQLLPEAQRRVNKARLRLEVAGGWPAEPLLAMVVDQKPGPETRVPLNSIVVVVVRNLP”, with -0.0893; and “HMEYELYALKEEVLKRLTREDRELLILLFEERRTIHAVAQRLGLSDSAVYKRRTQLVNKVKVIASMLM”, with -0.592.
Regarding “HMEYKNYYDSPVGRLELLSDGVSLTAVLFENQQGDGTREENTSLAIFKEATQWLDAYFKGDNPEITIPL”, the “soluble fraction (log2)” value is 0.33.
The value for “HMEYKTGIINTNKVRVRNAADADATVIFAINKDIKVKILAEENGFYKIGVSVKNRGNGEDLIGFVKKELIT” was 0.3; that for “HMEYQTVEKSEAEQIIQELEKAERLALKVYSKNDIITGISVSDGKSYYFSAELVPMLKNIIENPEIKIL” was -1.14; that for “HMEYRVRDKMTDILELLTEHRGRIALRDAFPTGTREELLAAFLALLELTKMQTVIVYQDRLYDDIQIVMK” was 0.22.
On to “HMEYSTLEIYSQTKKDLIEKSPHLNKVVYDKDDGYIYLLSFEKEDDLTSFKSNIENDSDIKRIEANV”, for which the “soluble fraction (log2)” value is -0.91.
As to “HMEYTVNRLAQISGVSKRTLRYYDEIGLLRPERVNPNGYRIYGQMQVDLLQQILFYRELGLPLEEIREII”, the “soluble fraction (log2)” value is -0.639.
On to “HMFAATGVVNAPSGLVLRETASKGGNPLATVPDKAQVEIVEEDGEWYKVKVNEQTGYLFAEFVNKTE”, for which the “soluble fraction (log2)” value was -0.13.
The value for “HMFAQDQLFKKDNSKVDVKILEINTTEIKYKLFTYQDGPTITVAKKDVALIIYQNGVHEVIT” was -1.17; that for “HMFAVPAPEVDDILSEKKVDVLLLGPQVRYLLEQFTEKLKDKNIPIGVIPMVDYGMMNGSKVLALAEELIG” was -0.288; that for “HMFDFGNHLRMLREKHGISQEELGRRVGRAGSVISNYENNIKIPTLDVLTTMARIYDVSLDYLVG” was -1.06.
In the case of “HMFDFNNLSSLSDVELSVYRFVVNNPEKVAYMRVRDIAQKTHVANSSVMRFVHKIGFASFPEFKAYLKNIN”, the “soluble fraction (log2)” value was -0.0916.
For “HMFDITKEVLKQSGLYNLYKNDESLEGINRIQNIEELLNGIKDFVENNEKSQASVSSFLQDVALATDQ”, the “soluble fraction (log2)” value was -0.217.
With “HMFDKVSVNNLAEAIGRLDGIYQDVLRLYYVHELPSKEIGKILNINHLTVNTRLKRAREKLFKMLKEE”, the “soluble fraction (log2)” value is -0.812.
In the case of “HMFDNPLSERDKEILNHISMGKSNKEIANQVGLAEQTIKNTISVILDKTFTSNRAQAASMATKNKW”, the “soluble fraction (log2)” value is -0.0659.
Then “HMFDPTDLPEKQLMVYEIIKSNNGINMTNIASLLGFNKTTVDNAIRALKKKEIVVFKGTNRSGGYFNT”, with 0.193; and “HMFEDEYLETMYAFYETDPQALVRTGDLASSLKVSPASATEMVQRLASKGFVDYIPYKGASLTELGLAM”, with -0.438; and “HMFEDYLRMKGLSIVSFSKQTGIPISTLRNLNKIRYDKWKIRYLEELSNVLNKTIQEIIEELKNMG”, with -1.32.
For “HMFEFFKGIYSISLLKKDGIFFVTFKDENKEAVKHIFPEKPTALELGIKVMEMFEYKERYDGII”, the “soluble fraction (log2)” value was -0.226.
“HMFEPLTDREREVLQALADGLSDKEIAERLYISPATVRTHITAILGKLDANSRLQAVVVAARHNLVTL”: the “soluble fraction (log2)” value is -0.926.
Regarding “HMFERISELLTDEELAVYKRGRNANASSVPKHADIADYRRATGVEALFGYLYIKGEIDRINQLFELA”, the “soluble fraction (log2)” value is -0.635.

The values are drawn from the domain aggregation screens of Martell et al. (2025).
